Test results: US20140072613A1 (published 2014)

Legend:
Test in all cases: cell-based or functional assay
[1] = biological target: T1, Flt3(h) (human, UniProt P36888 564-993, limits assumed)
T1 sequence (looked up): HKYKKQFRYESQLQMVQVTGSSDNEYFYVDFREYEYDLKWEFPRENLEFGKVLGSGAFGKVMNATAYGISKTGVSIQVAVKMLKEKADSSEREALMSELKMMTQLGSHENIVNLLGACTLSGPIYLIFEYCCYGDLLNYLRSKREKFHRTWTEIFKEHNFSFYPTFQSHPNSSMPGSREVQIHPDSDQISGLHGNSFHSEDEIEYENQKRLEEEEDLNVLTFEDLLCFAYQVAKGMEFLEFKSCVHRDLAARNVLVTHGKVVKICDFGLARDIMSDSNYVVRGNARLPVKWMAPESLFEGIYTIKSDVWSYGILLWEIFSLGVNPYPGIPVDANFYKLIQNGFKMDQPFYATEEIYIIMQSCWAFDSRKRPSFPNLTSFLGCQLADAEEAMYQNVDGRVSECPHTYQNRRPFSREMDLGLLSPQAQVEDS

[2] = biological target: T2, LKB1(h) (human, UniProt Q15831 1-433)
T2 sequence (looked up): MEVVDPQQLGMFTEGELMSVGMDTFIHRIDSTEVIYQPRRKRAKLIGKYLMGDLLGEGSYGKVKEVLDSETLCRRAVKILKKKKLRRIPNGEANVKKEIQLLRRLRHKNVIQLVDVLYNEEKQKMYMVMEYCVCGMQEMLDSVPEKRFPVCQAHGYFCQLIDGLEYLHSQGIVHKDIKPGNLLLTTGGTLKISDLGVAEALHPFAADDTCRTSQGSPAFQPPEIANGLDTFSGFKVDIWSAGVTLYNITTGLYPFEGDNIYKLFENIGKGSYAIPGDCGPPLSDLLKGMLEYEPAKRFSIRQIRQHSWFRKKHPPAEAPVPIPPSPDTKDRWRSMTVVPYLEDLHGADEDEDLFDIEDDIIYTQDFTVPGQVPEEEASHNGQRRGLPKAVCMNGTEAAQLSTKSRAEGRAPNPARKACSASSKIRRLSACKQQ

[3] = biological target: mTOR(h) (human, UniProt P42345 1362-2549)
Sequence of mTOR(h) (P42345 1362-2549 limits assumed): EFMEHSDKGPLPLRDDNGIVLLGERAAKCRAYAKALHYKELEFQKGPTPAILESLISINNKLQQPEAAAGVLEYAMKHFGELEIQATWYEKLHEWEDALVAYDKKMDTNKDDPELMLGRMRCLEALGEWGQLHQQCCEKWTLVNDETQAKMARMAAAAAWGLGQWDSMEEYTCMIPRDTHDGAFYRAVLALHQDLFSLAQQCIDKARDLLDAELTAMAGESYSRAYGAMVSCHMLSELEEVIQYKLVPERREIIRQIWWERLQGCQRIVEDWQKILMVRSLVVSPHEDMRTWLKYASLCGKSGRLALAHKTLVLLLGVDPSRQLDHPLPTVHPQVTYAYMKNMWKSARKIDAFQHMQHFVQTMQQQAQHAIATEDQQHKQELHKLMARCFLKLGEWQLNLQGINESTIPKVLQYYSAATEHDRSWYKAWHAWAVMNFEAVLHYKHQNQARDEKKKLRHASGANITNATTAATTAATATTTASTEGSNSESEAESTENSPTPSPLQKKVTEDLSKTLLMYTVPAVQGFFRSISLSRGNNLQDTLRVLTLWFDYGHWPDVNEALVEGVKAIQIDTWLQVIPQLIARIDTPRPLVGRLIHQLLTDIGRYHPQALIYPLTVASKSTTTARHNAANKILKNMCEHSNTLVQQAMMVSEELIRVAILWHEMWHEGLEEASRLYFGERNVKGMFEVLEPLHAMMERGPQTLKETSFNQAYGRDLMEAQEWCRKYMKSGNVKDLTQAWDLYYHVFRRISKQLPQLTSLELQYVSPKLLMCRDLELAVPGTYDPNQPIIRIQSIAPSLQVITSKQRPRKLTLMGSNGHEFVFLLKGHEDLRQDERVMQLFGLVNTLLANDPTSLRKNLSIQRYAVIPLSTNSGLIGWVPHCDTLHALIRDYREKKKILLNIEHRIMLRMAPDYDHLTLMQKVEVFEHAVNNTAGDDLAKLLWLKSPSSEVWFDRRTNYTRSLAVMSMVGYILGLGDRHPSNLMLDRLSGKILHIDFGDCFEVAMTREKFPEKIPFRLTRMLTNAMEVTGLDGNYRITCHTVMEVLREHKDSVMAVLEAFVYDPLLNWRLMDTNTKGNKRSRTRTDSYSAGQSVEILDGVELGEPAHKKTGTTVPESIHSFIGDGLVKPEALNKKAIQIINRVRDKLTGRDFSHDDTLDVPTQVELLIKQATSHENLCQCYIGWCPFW

[4] = biological target: SRPK1(h) (human, UniProt Q96SB4 1-655)
Sequence of SRPK1(h) (Q96SB4 whole entry): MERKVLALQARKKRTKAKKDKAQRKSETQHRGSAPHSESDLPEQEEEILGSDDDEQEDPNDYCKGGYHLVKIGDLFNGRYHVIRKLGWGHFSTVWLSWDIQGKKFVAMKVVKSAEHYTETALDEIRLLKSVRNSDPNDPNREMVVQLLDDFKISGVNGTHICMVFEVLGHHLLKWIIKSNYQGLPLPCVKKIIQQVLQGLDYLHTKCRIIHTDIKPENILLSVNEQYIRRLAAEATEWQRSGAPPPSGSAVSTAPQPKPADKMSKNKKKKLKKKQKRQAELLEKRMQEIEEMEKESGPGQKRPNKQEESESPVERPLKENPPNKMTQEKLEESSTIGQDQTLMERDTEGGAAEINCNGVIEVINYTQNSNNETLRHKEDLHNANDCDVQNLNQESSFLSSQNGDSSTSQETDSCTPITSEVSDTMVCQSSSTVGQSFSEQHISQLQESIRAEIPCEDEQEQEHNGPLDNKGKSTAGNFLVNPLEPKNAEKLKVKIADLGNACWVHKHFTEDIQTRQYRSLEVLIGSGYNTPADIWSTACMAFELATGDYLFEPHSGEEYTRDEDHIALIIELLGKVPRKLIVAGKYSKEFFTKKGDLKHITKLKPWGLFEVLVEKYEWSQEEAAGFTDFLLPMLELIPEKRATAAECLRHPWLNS

[5] = biological target: T3, Tec(h)activated (human, UniProt P42680 1-631, limits assumed)
T3 sequence (looked up): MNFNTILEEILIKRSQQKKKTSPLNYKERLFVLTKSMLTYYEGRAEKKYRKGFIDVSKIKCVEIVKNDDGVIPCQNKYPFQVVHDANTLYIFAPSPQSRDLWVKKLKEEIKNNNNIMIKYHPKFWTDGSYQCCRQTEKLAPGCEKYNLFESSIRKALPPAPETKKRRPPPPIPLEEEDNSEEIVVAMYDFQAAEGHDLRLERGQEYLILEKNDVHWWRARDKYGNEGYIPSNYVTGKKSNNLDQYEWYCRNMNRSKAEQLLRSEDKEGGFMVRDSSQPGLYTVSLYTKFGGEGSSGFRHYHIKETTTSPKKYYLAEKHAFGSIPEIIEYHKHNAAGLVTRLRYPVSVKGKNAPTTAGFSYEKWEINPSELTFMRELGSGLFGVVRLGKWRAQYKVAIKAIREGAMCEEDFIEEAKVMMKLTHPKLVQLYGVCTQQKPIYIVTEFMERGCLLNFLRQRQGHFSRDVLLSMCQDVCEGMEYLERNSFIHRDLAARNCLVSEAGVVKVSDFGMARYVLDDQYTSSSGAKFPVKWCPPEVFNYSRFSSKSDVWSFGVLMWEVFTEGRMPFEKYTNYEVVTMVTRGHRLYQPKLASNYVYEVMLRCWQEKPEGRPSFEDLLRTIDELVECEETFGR

[6] = biological target: T4, ULK2(h) (human, UniProt Q8IYT8 1-631, limits assumed)
T4 sequence (looked up): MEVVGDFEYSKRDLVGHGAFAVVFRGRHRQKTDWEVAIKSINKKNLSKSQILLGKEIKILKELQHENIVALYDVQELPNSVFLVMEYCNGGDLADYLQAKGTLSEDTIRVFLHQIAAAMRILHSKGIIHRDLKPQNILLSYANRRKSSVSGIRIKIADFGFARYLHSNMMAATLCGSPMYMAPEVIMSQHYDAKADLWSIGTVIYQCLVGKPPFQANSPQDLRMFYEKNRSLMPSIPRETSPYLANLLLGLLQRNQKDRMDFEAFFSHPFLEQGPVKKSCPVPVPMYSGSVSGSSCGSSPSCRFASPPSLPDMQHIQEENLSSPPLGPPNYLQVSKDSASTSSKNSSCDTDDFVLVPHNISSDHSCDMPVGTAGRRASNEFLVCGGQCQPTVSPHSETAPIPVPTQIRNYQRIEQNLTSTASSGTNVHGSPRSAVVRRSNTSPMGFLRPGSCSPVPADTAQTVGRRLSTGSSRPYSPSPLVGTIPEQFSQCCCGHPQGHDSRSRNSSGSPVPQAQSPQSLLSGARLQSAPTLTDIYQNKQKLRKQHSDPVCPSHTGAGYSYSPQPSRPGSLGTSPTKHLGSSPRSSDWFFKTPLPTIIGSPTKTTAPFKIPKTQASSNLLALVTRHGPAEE

[7] = biological target: CaMKIIβ(h) (human, UniProt Q13554 1-666)
Sequence of CaMKIIβ(h) (Q13554 whole entry): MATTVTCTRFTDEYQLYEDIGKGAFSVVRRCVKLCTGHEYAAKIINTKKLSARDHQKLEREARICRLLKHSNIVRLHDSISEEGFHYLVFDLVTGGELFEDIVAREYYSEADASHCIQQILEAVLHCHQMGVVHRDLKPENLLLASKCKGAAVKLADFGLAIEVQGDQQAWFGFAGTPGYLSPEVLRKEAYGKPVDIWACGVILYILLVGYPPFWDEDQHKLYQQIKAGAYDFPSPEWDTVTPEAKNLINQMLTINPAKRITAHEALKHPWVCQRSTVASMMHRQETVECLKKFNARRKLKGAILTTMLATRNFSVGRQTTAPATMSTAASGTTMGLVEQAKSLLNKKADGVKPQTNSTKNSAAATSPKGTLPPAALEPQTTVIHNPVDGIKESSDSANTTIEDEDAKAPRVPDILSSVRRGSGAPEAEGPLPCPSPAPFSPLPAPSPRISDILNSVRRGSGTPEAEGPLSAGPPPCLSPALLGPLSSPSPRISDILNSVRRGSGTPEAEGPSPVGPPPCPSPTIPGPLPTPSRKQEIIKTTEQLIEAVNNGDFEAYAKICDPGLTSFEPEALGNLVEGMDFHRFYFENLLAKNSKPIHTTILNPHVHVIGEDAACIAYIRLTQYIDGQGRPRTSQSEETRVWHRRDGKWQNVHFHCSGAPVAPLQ

[8] = biological target: T5, DCAMKL2(h) (human, UniProt Q8N568 372-714, limits assumed)
T5 sequence (looked up): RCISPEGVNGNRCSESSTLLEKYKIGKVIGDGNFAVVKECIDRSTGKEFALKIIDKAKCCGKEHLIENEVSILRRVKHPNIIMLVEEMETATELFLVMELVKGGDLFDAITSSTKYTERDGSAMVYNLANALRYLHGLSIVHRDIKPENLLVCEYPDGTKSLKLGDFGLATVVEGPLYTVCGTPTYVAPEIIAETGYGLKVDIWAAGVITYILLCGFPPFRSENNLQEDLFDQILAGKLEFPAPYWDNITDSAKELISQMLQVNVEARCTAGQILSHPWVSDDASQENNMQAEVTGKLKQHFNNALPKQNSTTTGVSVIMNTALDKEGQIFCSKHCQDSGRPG

[9] = biological target: EGFR(h) (human, UniProt P00533 696-1210, limits assumed)
[10] = biological target: EphA7(h) (human, UniProt Q15375 577-998, limits assumed)
Sequence of EphA7(h) (Q15375 577-998 limits assumed): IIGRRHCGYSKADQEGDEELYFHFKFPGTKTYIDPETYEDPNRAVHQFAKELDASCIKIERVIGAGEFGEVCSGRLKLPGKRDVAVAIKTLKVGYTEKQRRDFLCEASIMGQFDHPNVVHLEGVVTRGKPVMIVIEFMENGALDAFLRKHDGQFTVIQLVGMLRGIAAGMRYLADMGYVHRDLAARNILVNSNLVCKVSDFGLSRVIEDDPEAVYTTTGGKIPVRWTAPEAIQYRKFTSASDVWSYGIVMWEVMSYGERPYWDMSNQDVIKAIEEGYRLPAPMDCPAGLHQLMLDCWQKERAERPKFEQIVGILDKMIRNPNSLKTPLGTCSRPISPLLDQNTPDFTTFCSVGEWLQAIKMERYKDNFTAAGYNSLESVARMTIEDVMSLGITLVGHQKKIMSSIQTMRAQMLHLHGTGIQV

Binder: KAFAKLAARLYRKALARQLGVAA [MMI-0400]
- % activity, 100 µM [1]: 18%
- % activity, 100 µM [2]: 89%
- % activity, 100 µM [3]: 93%
- % activity, 100 µM [4]: 96%
- % activity, 100 µM [5]: 29%
- % activity, 100 µM [6]: 131%
- % activity, 100 µM [7]: 11%
- % activity, 100 µM [8]: 70%
- % activity, 100 µM [9]: 16%
- % activity, 100 µM [10]: 222%

Binder: FAKLAARLYRKALARQLGVAA [MMI-0300]
- % activity, 100 µM [1]: 84%
- % activity, 100 µM [2]: 101%
- % activity, 100 µM [3]: 91%
- % activity, 100 µM [4]: 90%
- % activity, 100 µM [5]: 56%
- % activity, 100 µM [6]: 122%
- % activity, 100 µM [7]: 2%
- % activity, 100 µM [8]: 81%
- % activity, 100 µM [9]: 21%
- % activity, 100 µM [10]: 159%
